Measurements published in paper PMC9482650, “Quantitative fragmentomics allow affinity mapping of interactomes” (Nature Communications, 2022).

How the values were obtained:
Assay in all cases: holdup assay
Design in all cases: key: below the threshold = too weak to quantify, mostly under pKd 3.1 to 4
Details in all cases: plain residues with an end cap or a label only (N-terminal biotin on a linker: ado-ado)
DFNB31_1, Q9P202 = target: T1, DFNB31_1, Q9P202
T1 sequence (Q9P202 135-233, limits assumed, looked up): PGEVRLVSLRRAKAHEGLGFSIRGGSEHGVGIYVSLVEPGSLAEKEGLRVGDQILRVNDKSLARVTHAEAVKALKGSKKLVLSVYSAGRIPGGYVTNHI

MAGI3_2, Q5TCQ9 = target: MAGI3_2, Q5TCQ9
MAGI3_2, Q5TCQ9, sequence (Q5TCQ9 398-503): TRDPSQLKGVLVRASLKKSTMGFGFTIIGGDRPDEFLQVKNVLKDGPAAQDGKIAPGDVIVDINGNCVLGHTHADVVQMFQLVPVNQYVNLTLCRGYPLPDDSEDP

MPDZ_5, O75970 = target: T2, MPDZ_5, O75970
T2 sequence (O75970 695-796, limits assumed, looked up): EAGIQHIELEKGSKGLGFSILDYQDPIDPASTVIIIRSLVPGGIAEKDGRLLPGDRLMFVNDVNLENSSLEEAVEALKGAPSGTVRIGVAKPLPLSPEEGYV

MPDZ_10, O75970 = target: T3, MPDZ_10, O75970
T3 sequence (O75970 1624-1722, limits assumed, looked up): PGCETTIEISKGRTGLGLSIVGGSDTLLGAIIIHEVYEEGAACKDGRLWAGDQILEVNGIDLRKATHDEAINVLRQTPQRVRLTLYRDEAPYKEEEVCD

LRRC7, Q96NW7 = target: T4, LRRC7, Q96NW7
T4 sequence (Q96NW7 1440-1537, limits assumed, looked up): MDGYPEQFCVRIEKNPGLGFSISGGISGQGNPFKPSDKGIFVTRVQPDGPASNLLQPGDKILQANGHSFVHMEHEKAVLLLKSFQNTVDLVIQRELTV

IL16_1, Q14005 = target: IL16_1, Q14005
IL16_1, Q14005, sequence (Q14005 210-306): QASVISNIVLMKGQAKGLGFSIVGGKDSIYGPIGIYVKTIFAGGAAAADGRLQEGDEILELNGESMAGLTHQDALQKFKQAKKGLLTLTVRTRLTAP

CARD11, Q9BXL7 = target: T5, CARD11, Q9BXL7
T5 sequence (Q9BXL7 662-765, limits assumed, looked up): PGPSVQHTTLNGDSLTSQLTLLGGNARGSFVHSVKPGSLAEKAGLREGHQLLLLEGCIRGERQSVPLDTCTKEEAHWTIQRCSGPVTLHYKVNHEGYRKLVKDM

MAST1, Q9Y2H9 = target: MAST1, Q9Y2H9
MAST1, Q9Y2H9, sequence (Q9Y2H9 962-1065): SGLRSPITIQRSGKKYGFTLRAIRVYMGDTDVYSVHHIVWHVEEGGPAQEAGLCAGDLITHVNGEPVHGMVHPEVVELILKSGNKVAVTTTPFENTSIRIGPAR

Inadl_4, Q8NI35 = target: Inadl_4, Q8NI35
Inadl_4, Q8NI35, sequence (Q8NI35 547-651): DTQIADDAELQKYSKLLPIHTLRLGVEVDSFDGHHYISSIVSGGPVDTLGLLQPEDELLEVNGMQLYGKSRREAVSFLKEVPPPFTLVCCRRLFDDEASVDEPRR

GRIP2_6, Q9C0E4 = target: GRIP2_6, Q9C0E4
GRIP2_6, Q9C0E4, sequence (Q9C0E4 648-740): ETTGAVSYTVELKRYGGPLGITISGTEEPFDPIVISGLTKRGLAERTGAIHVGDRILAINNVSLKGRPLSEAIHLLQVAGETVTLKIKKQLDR

Inadl_2, Q8NI35 = target: Inadl_2, Q8NI35
Inadl_2, Q8NI35, sequence (Q8NI35 238-335): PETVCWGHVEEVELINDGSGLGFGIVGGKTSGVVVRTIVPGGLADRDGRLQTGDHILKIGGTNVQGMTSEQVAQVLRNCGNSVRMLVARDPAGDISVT

LDB3, O75112 = target: LDB3, O75112
LDB3, O75112, sequence (O75112 1-94): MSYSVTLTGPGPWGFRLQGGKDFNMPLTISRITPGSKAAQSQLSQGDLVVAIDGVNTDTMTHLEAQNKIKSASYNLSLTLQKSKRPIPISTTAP

GRIP1_2, Q9Y3R0 = target: T6, GRIP1_2, Q9Y3R0
T6 sequence (Q9Y3R0 145-248, limits assumed, looked up): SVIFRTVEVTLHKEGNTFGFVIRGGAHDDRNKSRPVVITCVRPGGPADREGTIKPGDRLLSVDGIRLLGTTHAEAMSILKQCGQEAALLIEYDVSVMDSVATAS

MPP6, Q9NZW5 = target: T7, MPP6, Q9NZW5
T7 sequence (Q9NZW5 125-219, limits assumed, looked up): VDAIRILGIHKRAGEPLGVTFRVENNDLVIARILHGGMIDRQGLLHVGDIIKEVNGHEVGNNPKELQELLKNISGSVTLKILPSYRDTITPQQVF

NHERF4_1, Q86UT5-2 = target: NHERF4_1, Q86UT5-2
NHERF4_1, Q86UT5-2, sequence (Q86UT5 other isoform, or with tags, fused parts or gaps): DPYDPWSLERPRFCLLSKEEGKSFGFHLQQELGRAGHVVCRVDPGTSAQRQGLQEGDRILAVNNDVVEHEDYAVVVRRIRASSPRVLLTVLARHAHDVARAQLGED

FRMPD4, Q14CM0 = target: FRMPD4, Q14CM0
FRMPD4, Q14CM0, sequence (Q14CM0 67-160): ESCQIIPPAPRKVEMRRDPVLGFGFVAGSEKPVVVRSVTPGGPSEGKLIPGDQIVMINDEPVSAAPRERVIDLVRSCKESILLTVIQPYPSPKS

RAPGEF6, Q8TEU7 = target: T8, RAPGEF6, Q8TEU7
T8 sequence (Q8TEU7 525-625, limits assumed, looked up): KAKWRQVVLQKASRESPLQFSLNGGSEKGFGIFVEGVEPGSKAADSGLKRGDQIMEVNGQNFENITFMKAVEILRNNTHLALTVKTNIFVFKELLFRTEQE

RADIL, Q96JH8 = target: T9, RADIL, Q96JH8
T9 sequence (Q96JH8 971-1071, limits assumed, looked up): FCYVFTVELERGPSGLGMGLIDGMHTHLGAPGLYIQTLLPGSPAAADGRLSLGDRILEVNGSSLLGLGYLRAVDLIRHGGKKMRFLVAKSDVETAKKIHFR

HTRA2, O43464 = target: HTRA2, O43464
HTRA2, O43464, sequence (O43464 355-458): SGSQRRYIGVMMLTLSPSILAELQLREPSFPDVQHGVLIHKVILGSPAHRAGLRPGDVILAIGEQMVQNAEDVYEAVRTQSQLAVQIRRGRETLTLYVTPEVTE

GOPC, Q9HD26 = target: GOPC, Q9HD26
MPP7, Q5T2T1 = target: T10, MPP7, Q5T2T1
T10 sequence (Q5T2T1 134-230, limits assumed, looked up): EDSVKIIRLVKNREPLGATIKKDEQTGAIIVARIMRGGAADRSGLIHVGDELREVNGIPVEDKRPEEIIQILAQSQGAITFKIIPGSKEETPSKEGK

GRIP1_7, Q9Y3R0 = target: T11, GRIP1_7, Q9Y3R0
T11 sequence (Q9Y3R0 999-1096, limits assumed, looked up): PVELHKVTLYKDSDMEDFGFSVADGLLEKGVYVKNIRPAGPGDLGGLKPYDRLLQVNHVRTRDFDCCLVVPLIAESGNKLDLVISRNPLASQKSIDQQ

MAGI2_5, Q86UL8 = target: MAGI2_5, Q86UL8
MAGI2_5, Q86UL8, sequence (Q86UL8 915-1017): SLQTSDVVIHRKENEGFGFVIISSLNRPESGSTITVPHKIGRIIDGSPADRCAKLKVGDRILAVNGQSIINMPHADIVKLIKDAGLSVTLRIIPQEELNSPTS

FRMPD2_2, Q68DX3 = target: FRMPD2_2, Q68DX3
FRMPD2_2, Q68DX3, sequence (Q68DX3 944-1038): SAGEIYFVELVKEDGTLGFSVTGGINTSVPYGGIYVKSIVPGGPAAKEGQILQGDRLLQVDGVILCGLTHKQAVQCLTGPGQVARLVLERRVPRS

FRMPD3, Q5JV73 = target: FRMPD3, Q5JV73
FRMPD3, Q5JV73, sequence (Q5JV73 12-100): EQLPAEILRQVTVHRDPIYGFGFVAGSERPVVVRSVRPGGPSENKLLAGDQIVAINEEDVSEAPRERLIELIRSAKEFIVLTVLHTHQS

DLG4_2, P78352 = target: DLG4_2, P78352
DLG4_2, P78352, sequence (P78352 155-259): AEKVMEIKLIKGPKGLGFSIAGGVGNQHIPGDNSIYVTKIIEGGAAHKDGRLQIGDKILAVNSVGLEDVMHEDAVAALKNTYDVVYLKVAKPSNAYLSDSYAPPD

pKd (DFNB31_1, Q9P202)	pKd (MAGI3_2, Q5TCQ9)	pKd (MPDZ_5, O75970)	pKd (MPDZ_10, O75970)	pKd (LRRC7, Q96NW7)	pKd (IL16_1, Q14005)	pKd (CARD11, Q9BXL7)	pKd (MAST1, Q9Y2H9)	pKd (Inadl_4, Q8NI35)	pKd (GRIP2_6, Q9C0E4)	pKd (Inadl_2, Q8NI35)	pKd (LDB3, O75112)	pKd (GRIP1_2, Q9Y3R0)	pKd (MPP6, Q9NZW5)	pKd (NHERF4_1, Q86UT5-2)	pKd (FRMPD4, Q14CM0)	pKd (RAPGEF6, Q8TEU7)	pKd (RADIL, Q96JH8)	pKd (HTRA2, O43464)	pKd (GOPC, Q9HD26)	other results	Binder
3.52	5.41	below the threshold	4.4	below the threshold	below the threshold	below the threshold	4.09	below the threshold	below the threshold	below the threshold	below the threshold	below the threshold	below the threshold	below the threshold	below the threshold	below the threshold	3.54	below the threshold	4.19	pKd (MPP7, Q5T2T1): below the threshold; pKd (GRIP1_7, Q9Y3R0): below the threshold; pKd (MAGI2_5, Q86UL8): below the threshold; pKd (FRMPD2_2, Q68DX3): below the threshold; pKd (FRMPD3, Q5JV73): below the threshold; pKd (DLG4_2, P78352): 4.53	TKGPRGPTRV [SAPCD1, Q5SSQ6]
below the threshold	below the threshold	below the threshold	below the threshold	below the threshold	below the threshold	below the threshold	below the threshold	below the threshold	3.56	below the threshold	below the threshold	below the threshold	3.91	below the threshold	3.49	below the threshold	below the threshold	below the threshold	below the threshold	pKd (MPP7, Q5T2T1): below the threshold; pKd (GRIP1_7, Q9Y3R0): below the threshold; pKd (MAGI2_5, Q86UL8): below the threshold; pKd (FRMPD2_2, Q68DX3): below the threshold; pKd (FRMPD3, Q5JV73): 3.84; pKd (DLG4_2, P78352): below the threshold	KKAPTNEFYA [SDC4, P31431]
3.66	4.47	below the threshold	below the threshold	3.73	4.95	below the threshold	4.36	3.63	below the threshold	below the threshold	below the threshold	below the threshold	below the threshold	3.48	below the threshold	below the threshold	4.05	below the threshold	3.54	pKd (MPP7, Q5T2T1): below the threshold; pKd (GRIP1_7, Q9Y3R0): below the threshold; pKd (MAGI2_5, Q86UL8): 4.55; pKd (FRMPD2_2, Q68DX3): 4.19; pKd (FRMPD3, Q5JV73): 3.5; pKd (DLG4_2, P78352): 4.59	QGPVETESVV [SLC45A4, Q5BKX6]
below the threshold	below the threshold	below the threshold	below the threshold	below the threshold	below the threshold	below the threshold	below the threshold	below the threshold	below the threshold	below the threshold	below the threshold	below the threshold	below the threshold	below the threshold	below the threshold	below the threshold	3.57	below the threshold	below the threshold	pKd (MPP7, Q5T2T1): below the threshold; pKd (GRIP1_7, Q9Y3R0): below the threshold; pKd (MAGI2_5, Q86UL8): below the threshold; pKd (FRMPD2_2, Q68DX3): below the threshold; pKd (FRMPD3, Q5JV73): below the threshold; pKd (DLG4_2, P78352): below the threshold	SNAGNTATKA [NOSTRIN, Q8IVI9]
